In this test the target is recombinant Smc04048 cytochrome c from Sinorhizobium meliloti (Sinorhizobium meliloti). Put plainly: SEC. For orientation: Size exclusion chromatography separates by hydrodynamic size, large species first.

For the substance “recombinant Smc04048 cytochrome c from Sinorhizobium meliloti (natural protein)”, the stoichiometry N (in general, the number of molecules, sites or subunits per partner or assembly) was determined as 2.

Source of the values: paper PMC3153034.
